Measurements taken from patent US20030165811A1, “Method for determining the activity of ornithine decarboxylase and for identifying effectors of ornithine decarboxylase activity” (priority 2001, published 2003).

B1: antizyme inhibitor: human antizyme inhibitor, binds antizyme and releases ODC; full-length clone from human liver cDNA, expressed in yeast (protein, UniProt O14977 1-448, looked up)
chain: MKGFIDDANYSVGLLDEGTNLGNVIDNYVYEHTLTGKNAFFVGDLGKIVKKHSQWQNVVAQIKPFYTVKCNSAPAVLEILAALGTGFACSSKNEMALVQELGVPPENIIYISPCKQVSQIKYAAKVGVNILTCDNEIELKKIARNHPNAKVLLHIATEDNIGGEEGNMKFGTTLKNCRHLLECAKELDVQIIGVKFHVSSACKESQVYVHALSDARCVFDMAGEIGFTMNMLDIGGGFTGTEFQLEEVNHVISPLLDIYFPEGSGVKIISEPGSYYVSSAFTLAVNIIAKKVVENDKFPSGVEKTGSDEPAFMYYMNDGVYGSFASKLSEDLNTIPEVHKKYKEDEPLFTSSLWGPSCDELDQIVESCLLPELNVGDWLIFDNMGADSFHEPSAFNDFQRPAIYYMMSFSDWYEMQDAGITSDSMMKNFFFVPSCIQLSQEDSFSAEA
modifications: full-length
notes: full-length clone from human liver cDNA, expressed in yeast
B2: antizyme 2: human ODC antizyme 2 (Acc. No. AF057297), expressed in yeast from plasmid (protein, UniProt O95190 1-189, looked up)
Ornithine decarboxylase …: MINTQDSSILPLSNCPQLQCCRHIVPGPLWCSDAPHPLSKIPGGRGGGRDPSLSALIYKDEKLTVTQDLPVNDGKPHIVHFQYEVTEVKVSSWDAVLSSQSLFVEIPDGLLADGSKEGLLALLEFAEEKMKVNYVFICFRKGREDRAPLLKTFSFLGFEIVRPGHPCVPSRPDVMFMVYPLDQNLSDED
B3: antizyme 3: human ODC antizyme 3 (Acc. No. AF175296), expressed in yeast from plasmid (protein, UniProt Q9UMX2 1-235, looked up)
Ornithine decarboxylase …: MPCKRCRPSVYSLSYIKRGKTRNYLYPIWSPYAYYLYCYKYRITLREKMLPRCYKSITYKEEEDLTLQPRSCLQCSESLVGLQEGKSTEQGNHDQLKELYSAGNLTVLATDPLLHQDPVQLDFHFRLTSQTSAHWHGLLCDRRLFLDIPYQALDQGNRESLTATLEYVEEKTNVDSVFVNFQNDRNDRGALLRAFSYMGFEVVRPDHPALPPLDNVIFMVYPLERDVGHLPSEPP

Assays:
[1] = system: ornithine decarboxylase (ODC); assay: Antizyme assay: spot test growth of ODC-knockout yeast complemented with human ODC on polyamine-free medium; assay type: cell-based; details: for inhibition of ODC activity (growth inhibition of the yeast cells): antizyme expressed from yeast promoters ADH, GaI1 or GPD in Y15034 with p413GaIL-ODC, PFSC plate, 30° C.
Description: The polyamine-dependent yeast strain Y15034 (ODC-knockout) and the corresponding wild-type strain Y10000 were each transformed by the Li acetate method with the plasmid p413GaIL-ODC. In addition, each of the 12 antizyme expression plasmids described in Example 2 and, as control, corresponding blank plasmids were cotransformed.
(§1) The transformants were plated out on Synthetic Complete (SC) medium (His-, Ura-,2% glucose, Difco). For each transformation, an overnight culture was inoculated in PFSC medium (His-, Ura-, 2% glucose). This was used firstly to carry out a spot test, i.e. the yeasts were adjusted to OD600 3.0 and subjected to 10-fold dilutions (5×). 2 μl of each dilution, starting with OD600 3.0, were placed as a drop on a PFSC plate (His-, Ura-, 2% galactose/raffinose [1:1]), and the plates were incubated at 30° C.

[2] = system: antizyme; assay: Antizyme inhibitor assay: spot test growth of yeast co-expressing ODC, antizyme and AZI on polyamine-free medium; assay type: cell-based, human; details: AZI expressed from ADH, GaIL or GPD promoter (p415); PFSC plate, 30° C.
Description: The yeasts prepared in Example 6 were each additionally cotransformed with the 3 AZI expression plasmids (p415ADH-AZI, p415GaIL-AZI and p415GPD-AZI) described in Example 3 and with the corresponding blank plasmids.
as §1, with “Ura-,Leu-, 2% glucose).” for “Ura-,2% glucose, Difco).”, “Ura-, Leu-,” for “Ura-,”, “with an” for “with”, “3.0” for “3.0,”

Chain of ornithine decarboxylase (ODC) (P11926 whole entry): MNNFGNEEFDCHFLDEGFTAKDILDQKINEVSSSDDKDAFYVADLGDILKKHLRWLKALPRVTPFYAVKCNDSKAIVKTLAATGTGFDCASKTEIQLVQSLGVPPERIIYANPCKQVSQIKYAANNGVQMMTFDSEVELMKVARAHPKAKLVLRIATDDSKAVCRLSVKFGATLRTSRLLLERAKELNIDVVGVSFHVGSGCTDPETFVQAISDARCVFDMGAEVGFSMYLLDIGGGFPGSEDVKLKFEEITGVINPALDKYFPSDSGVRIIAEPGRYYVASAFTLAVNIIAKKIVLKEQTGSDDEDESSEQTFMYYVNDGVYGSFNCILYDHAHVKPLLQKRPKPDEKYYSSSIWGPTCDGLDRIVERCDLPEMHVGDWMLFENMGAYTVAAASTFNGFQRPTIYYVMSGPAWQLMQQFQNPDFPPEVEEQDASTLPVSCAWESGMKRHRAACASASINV

Molecule	inhibition of ODC activity (growth inhibition of the yeast cells) [1]	other results
NCCCCN [putrescine, reference compound]		abolition of the antizyme-related growth inhibition ([1]; addition of putrescine to polyamine-free medium): abolish the growth inhibition
Antizyme 1: human ODC antizyme 1 (Acc. No. D87914), protein that binds and inhibits ODC, expressed in yeast from plasmid	achieved inhibition of ODC activity only with the strong GPD promoter	
B1		abolition of the ODC inhibition caused by antizyme [2]: the ODC inhibition caused by antizyme was abolished
B2	effective inhibition of ODC activity was made possible also by the ADH promoter	
B3	also by the GaI1 promoter	
